# Measurements: patent publication US20260242478A1 (published 2026)
# Where no end group is shown, it is not given here.
# Legend:
# [1] = target: T1, anti-CD28 scFv (VH - linker 1 - VL) (biotinylated (site not stated)); experiment: phage ELISA as above, wells pre-incubated with soluble CD28 (competitor);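 note: ELISA of crude clonal phage supernatants added to wells pre-treated with soluble CD28 in blocking buffer, bound phage read out with HRP-conjugated anti-M13 antibody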
# [2] = target: T1, anti-CD28 scFv (VH - linker 1 - VL); experiment: phage ELISA; biotinylated anti-CD28 scFv on neutravidin plate, clonal phage supernatant, anti-M13-HRP detection;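 note: before phage addition, wells were pretreated with soluble CD28 protein in blocking buffer, or with blocking buffer only as the comparison, then phage were added without washing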
# Experimental: (§1) Clonal phage were harvested as crude supernatants and screened via standard enzyme linked immunosorbent assays (ELISAs). […] Prior to the addition of clonal phage, wells were incubated with blocking buffer and CD28 soluble protein or blocking buffer alone. Without washing or aspirating, clonal phage supernatants were then added to the wells and incubated for a short time. Wells were then washed followed by detection of bound phage using a horse radish peroxidase conjugated anti-M13 antibody.
# [3] = target: T2, Anti-CD28 scFv (VH - linker 1 - VL) (biotinylated (site not stated)); experiment: clonal phage ELISA on biotinylated anti-CD28 scFv captured on neutravidin plates, anti-M13 HRP detection;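 note: crude phage supernatants were used, and before phage were added the wells were pretreated with blocking buffer, either alone or with soluble CD28 protein, without washing in between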
# T2 sequence (scFv, as listed by the source): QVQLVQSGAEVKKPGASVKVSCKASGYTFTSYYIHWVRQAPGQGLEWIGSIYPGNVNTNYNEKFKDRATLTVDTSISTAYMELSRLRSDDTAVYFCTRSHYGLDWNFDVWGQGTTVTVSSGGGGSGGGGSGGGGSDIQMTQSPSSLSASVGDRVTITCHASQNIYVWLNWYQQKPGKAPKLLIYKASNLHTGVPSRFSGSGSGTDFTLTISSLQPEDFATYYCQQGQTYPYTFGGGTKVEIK
# [4] = target: T2, Anti-CD28 scFv (VH - linker 1 - VL); experiment: clonal phage ELISA on captured anti-CD28 scFv, wells pre-incubated with soluble CD28 as competitor;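 note: crude phage supernatants used, bound phage read out via HRP-linked anti-M13 antibody, with comparison wells given blocking buffer lacking soluble CD28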
# Experimental: as §1
# [5] = target: anti-CD28 scFv (VH - linker 1 - VL) (biotinylated (site not given)); experiment: phage ELISA as before, wells pre-incubated with soluble CD28 (competitor)
# Sequence of anti-CD28 scFv (VH - linker 1 - VL) (biotinylated (site not given)) (scFv, as listed by the source): as above
# T1 sequence (scFv, as listed by the source): as above
Binder,CD28 scFv signal in presence of CD28 [1],CD28 scFv signal [2],CD28 scFv signal [3],CD28 scFv signal in presence of CD28 [4],CD28 scFv signal in presence of CD28 [5]
"MDWCPKHLWIECFA (peptide, not shown: large carriers, cysteine pairing not given here; also: fused to phage pIII protein, pIII and linker sequence not given here, Clonal phage of the Peptide-9 library) [Phage-145]",0.132,1.98,–,–,–
"MDWCPRYLWTECFF (peptide, not shown: large carriers, Clonal phage of the Peptide-9 library) [Phage-158]",0.244,1.26,–,–,–
MDWCPMDLWDVCFN (tested as crude clonal phage supernatant) [Phage-140],–,–,2.15,0.263,–
MDWCPTYLWFECFN (tested as crude clonal phage supernatant) [Phage-132],–,–,2.33,0.224,–
MDWCPKFLWHECFS (tested as crude clonal phage supernatant; also called position 7 is F in the position column) [Phage-135],–,–,2.28,0.142,–
MDWCPVILWDFCFN (tested as crude clonal phage supernatant; also called position 11 is F in the position column) [Phage-142],–,–,2.03,0.173,–
MDWCPRDLWIECFF (tested as crude clonal phage supernatant) [Phage-128],–,–,2.37,0.137,–
MDWCPRSLWIYCFN (tested as crude clonal phage supernatant) [Phage-131],–,–,2.34,0.401,–
MDWCPRFLWNECFN (tested as crude clonal phage supernatant) [Phage-126],–,–,2.4,0.503,–
MDWCPRYLWHECFH (tested as crude clonal phage supernatant) [Phage-137],–,–,2.19,0.308,–
"MDWCPRFLWSVCFN (tested as crude clonal phage supernatant; not shown: pIII of the bacteriophage to which the peptide is fused) [Phage-81, clonal phage peptide …]",–,–,–,–,1.15
MDWCPTNLWHECFA (tested as crude clonal phage supernatant) [Phage-138],–,–,2.16,0.096,–
"MDWCPRHLWNVCFS (peptide, not shown: large carriers, Clonal phage of the Peptide-9 library) [Phage-150]",0.176,1.61,–,–,–
MDWCPRDLWDQCYA (tested as crude clonal phage supernatant) [Phage-122],–,–,2.41,0.201,–
"MDWCPRDLWNVCFA (peptide, not shown: large carriers, Clonal phage of the Peptide-9 library) [Phage-154]",0.145,1.38,–,–,–
"MDWCPRDLWAVCFA (peptide, not shown: large carriers, Clonal phage of the Peptide-9 library) [Phage-149]",0.089,1.67,–,–,–
"MDWCPRDLWNVCFN (peptide, not shown: large carriers, cysteine pairing not given here; also: displayed as fusion to phage pIII, linker and pIII sequence not given here, Clonal phage of the Peptide-9 library) [Phage-169]",0.108,0.74,–,–,–
MDWCPRHLWYACFN (tested as crude clonal phage supernatant) [Phage-144],–,–,2.01,0.159,–
MDWCPRDLWHACFS (tested as crude clonal phage supernatant) [Phage-120],–,–,2.41,0.173,–
MDWCPSYLWHECFA (tested as crude clonal phage supernatant) [Phage-134],–,–,2.28,0.198,–
MHWCPIYLWDECFN (tested as crude clonal phage supernatant) [Phage-136],–,–,2.23,0.193,–
MDWCPVSLWHVCFY (tested as crude clonal phage supernatant) [Phage-125],–,–,2.4,0.409,–
MDWCPRPLWDMCFF (tested as crude clonal phage supernatant) [Phage-124],–,–,2.4,0.138,–
LDWCPLNLWDLCYF (tested as crude clonal phage supernatant) [Phage-143],–,–,2.03,0.095,–

Binder,CD28 scFv signal in presence of CD28 [1],CD28 scFv signal [2],CD28 scFv signal [3],CD28 scFv signal in presence of CD28 [4],CD28 scFv signal in presence of CD28 [5]
MDWCPRSLWNVCFF (tested as crude clonal phage supernatant) [Phage-141],–,–,2.13,0.356,–
"MAWCPMNLWDQCFF (peptide, not shown: large carriers, Clonal phage of the Peptide-9 library) [Phage-159]",0.145,1.2,–,–,–
MDWCPRDLWHVCFF (tested as crude clonal phage supernatant) [Phage-121],–,–,2.41,0.268,–
MDWCPSYLWTVCFA (tested as crude clonal phage supernatant) [Phage-129],–,–,2.34,0.096,–
MDWCPRYLWDACFF (tested as crude clonal phage supernatant) [Phage-130],–,–,2.34,0.168,–
"MDWCPRHLWDLCFA (peptide, not shown: large carriers, cysteine pairing not given here; also: displayed as fusion to phage pIII, linker and pIII sequence not given here, Clonal phage of the Peptide-9 library) [Phage-166]",0.096,0.925,–,–,–
"MDWCPRHLWDLCFF (peptide, not shown: large carriers, Clonal phage of the Peptide-9 library) [Phage-153]",0.182,1.4,–,–,–
"MDWCPRHLWDQCFA (peptide, not shown: large carriers, Clonal phage of the Peptide-9 library) [Phage-161]",0.144,1.12,–,–,–
"MDWCPKHLWHQCFH (peptide, not shown: large carriers, Clonal phage of the Peptide-9 library) [Phage-156]",0.108,1.35,–,–,–
"MDWCPRSLWSYCFH (peptide, not shown: large carriers, Clonal phage of the Peptide-9 library) [Phage-157]",0.152,1.33,–,–,–
"MHWCPLHLWNECYH (peptide, not shown: large carriers, Clonal phage of the Peptide-9 library) [Phage-155]",0.113,1.37,–,–,–
"MDWCPMYLWNECFS (tested as crude clonal phage supernatant; not shown: pIII of the bacteriophage to which the peptide is fused) [Phage-80, clonal phage peptide MDWCPMYLWNECFS]",–,–,–,–,0.411
"MHWCPRALWHECFN (peptide, not shown: large carriers, Clonal phage of the Peptide-9 library) [Phage-160]",0.144,1.18,–,–,–
MDWCPRYLWHMCYS (tested as crude clonal phage supernatant) [Phage-119],–,–,2.42,1.17,–
"MDWCPKYLWDKCFH (peptide, not shown: large carriers, Clonal phage of the Peptide-9 library) [Phage-152]",0.109,1.54,–,–,–
"MDWCPRHLWSECFY (peptide, not shown: large carriers, cysteine pairing not given here; also: fused to phage pIII protein, pIII and linker sequence not given here, Clonal phage of the Peptide-9 library) [Phage-146]",0.199,1.92,–,–,–
"MDFCPISLWHECFF (peptide, not shown: large carriers, Clonal phage of the Peptide-9 library) [Phage-151]",0.129,1.58,–,–,–
MDWCPRALWNECFA (tested as crude clonal phage supernatant) [Phage-127],–,–,2.38,0.375,–
"MHWCPEYLWNECFA (peptide, not shown: large carriers, cysteine pairing not given here; also: displayed as fusion to phage pIII, linker and pIII sequence not given here, Clonal phage of the Peptide-9 library) [Phage-148]",0.092,1.69,–,–,–
"MHWCPRDLWVVCFN (peptide, not shown: large carriers, cysteine pairing not given here; also: fused to phage pIII protein, pIII and linker sequence not given here, Clonal phage of the Peptide-9 library) [Phage-147]",0.112,1.83,–,–,–
MDWCPRDLWDVCFA (tested as crude clonal phage supernatant) [Phage-139],–,–,2.16,0.28,–
MDWCPRHLWDECFF (tested as crude clonal phage supernatant) [Phage-118],–,–,2.46,0.663,–
MDWCPRFLWDECFF (tested as crude clonal phage supernatant; also called position 7 is F in the position column) [Phage-133],–,–,2.28,0.246,–
MDWCPIHLWNECFA (tested as crude clonal phage supernatant) [Phage-123],–,–,2.4,0.203,–
